Assay results reported in the DeepSol protein solubility set.

experiment: soluble on expression in E. coli; label from the status in PepcDB or PDB records

Sequence	soluble on expression in E. coli
MGHHHHHHGGHMSLTTSTPSNRILVVMSSAAQIPLQDGKNHNTGYFLNEFGVPAKRLTDAGYELVIATPRGSVPGMDHNSDHDMFFKNKEEHNEIKAFVGDVLSNTTIQTTEAVAAEGTQAYAALFLPGGHAPMADLMADPALGEILRQFHAAAKPTALICHAPTALLAAQADPVAFQKGMEAGEQPSAQDFTYQGYRVTVFANDEEEATEKTFEAPMLYYPADALTQGGAQVENGEAMKPNVVRDRELLTGQNPFSDEPFVAQLLEMLGEGGS	soluble
MGHHHHHHSHAAPGAQHFLYEVPPWVMCRFYKVMDALEPADWCQFAALIVRDQTELRLCERSGQRTASVLWPWINRNARVADLVHILTHLQLLRARDIITAWHPPAPLP	not soluble
MGHHHHHHSHELEALSQDPRRYEEWKWFRCPTLLEVLEQFPSVALPAPLLLTQLPLLQPRYYSVSSAPSTHPGEIHLTVAVLAYRTQDGLGPLHYGVCSTWLSQLKPGDPVPCFIRGAPSFRLPPDPSLPCILVGPGTGIAPFRGFWQERLHDIESKGLQPTPMTLVFGCRCSQLDHLYRDEVQNAQQRGVFGRVLTAFSREPDNPKTYVQDILRTELAAEVHRVLCLERGHMFVCGDVTMATNVLQTVQRILATEGDMELDEAGDVIGVLRDQQRYHEDIFGLTLRTQEVTSRI	not soluble
MGHHHHHHSHELIREVEMGPFKHTVDDGLDIRKAAFECMYTLLDSCLDRLDIFEFLNHVEDGLKDHYDIKMLTFLMLVRLSTLCPSAVLQRLDRLVEPLRATCTTKVKANSVKQEFEKQDELKRSAMRAVAALLTIPEAEKSPLMSEFQSQISSNPELAAIFESIQKDSSSTNLESMDTS	not soluble
MGHHHHHHSHGPRDIISPELMADYLQPKLLGILAFFNMQLLSSSVGIEDKKMALNSLMSLMKLMGPKHVSSVRVKMMTTLRTGLRFKDDFPELCCRAWDCFVRCLDHACLGSLLSHVIVALLPLIHIQPKETAAIFHYLIIENRDAVQDFLHEIYFLPDHPELKKIKAVLQEYRKETSEST	not soluble
MGHHHHHHSHIPFDYIVEKTVSTGVLVDVIGALLEVGNLTEDYRGLKLPFKIMDQYKEVLQCEAHNDQALEFQRFFQRLTGPQNVIALVSWRLSGIYKLKTLSNDPISKVIANPDIPEVEEIRVVVY	not soluble
MGHHHHHHSHMAICQFFLQGRCRFGDRCWNEHPGARGAGGGRQQPQQQPSGNNRRGWNTTSQRYSNVIQPSSFSKSTPWGGSRDQEKPYFSSFDSGASTNRKEGFGLSENPFASLSPDEQKDEKKLLEGIVKDMEVWESSGQWMFSVYSPVKKKPNISGFTDISPEELRLEYHNFLTSNNLQSYLNSVQRLINQWRNRVNELKSLNISTKVALKCLWKIYTHLSPKIYGPDCAL	not soluble
MGHHHHHHSHMATGTPESQARFGQSVKGLLTEKVTTCGTDVIALTKQVLKGSRSSELLGQAARNMVLQEDAILHSEDSLRKMAIITTHLQYQQEAIQKNVEQSSDLQDQLNHLLK	not soluble
MGHHHHHHSHMCYNRESNFANQTIDFYCYTEYNGFMTTKGANVMTEVEMKEQVQEVLDKLRPFLLRDGGDCELVDVDEGIVKLRLLGACGSCPSSTITLKAGIERALLEEVPGVVEVEQVF	soluble
MGHHHHHHSHMDAIHKQKSLQFKKTMDAKKNYEQKCRDKDEAEQAVSRSANLVNPKQQEKLFVKLATSKTAVEDSDKAYMLHIGTLDKVREEWQSEHIKACEAFEAQECERINFFRNALWLHVNQLSQQCVTSDEMYEQVRKSLEMCSIQRDIEYFVNQRKTGQIPPAPIMHENFYSSQKNAVPAGKATGPNLARRGPLPIPKSSPDDPNYSLVDDYSLLYQ	not soluble
MGHHHHHHSHMDALEGESFALSFSSASDAEFDAVVGYLEDIIMDDEFQLLQRNFMDKYYLEFEDTEENKLIYTPIFNEYISLVEKYIEEQLLQRIPEFNMAAFTTTLQHHKDEVAGDIFDMLLTFTDFLAFKEMFLDYRAEKEGRGLDLSSGLVVTSLCKSSSLPASQNNLRH	soluble
MGHHHHHHSHMDEGVKEKFIGAVLGAAVGDALGKSVEDITEEEVFEFYGDRIRDFVTPHPSSPAYGQLPEETSDETTIFRLLLESLVEKKALDVRDFLNRLMEWYDREEMHRYPDPMLLTAIDLLSRGINPSTHGLTSFSVEGILRSVALGLYHYYNPELAAEGSKVVSLLTHRSDVISDASAILGALIAHLVRGDFYLEDFREKLRLIETLKDYAKEEKHKKILDRVAELLMESADLETAINTLGNGTFAFEAFPLALYIFLSNVENPEEALFQAVNSYGEFGGDTDAIGFLVGAMLGAYYGEEAIPYHLRENVENSQKLRELAERLYEVVEKQVGFSQ	soluble
MGHHHHHHSHMDQEMRVKRLESEKQELQEQLDLQHKKCQEANQKIQELQASQEARADHEQQIKDLEQKLSLQEQDAAIVKNMKSELVRLPRLERELKQLREESAHLREMRETNGLLQEELEGLQRKLGRQEKMQETLVGLELENERLLAKLQSWERLDQTMGLSIRTPEDLSRFVVELQQRELALKDKNSAVTSSARGLEKARQQLQEELRQVSGQLLEERKKRETHEALARRLQKRVLLLTKERDGMRAILGSYDSELTPAEYSPQLTRRMREAEDMVQKVHSHSAEMEAQLSQALEELGGQKQRADMLEMELKMLKSQS	soluble
MGHHHHHHSHMERFVVTAPPARNRSKTALYVTPLDRVTEFGGELHEDGGKLFCTSCNVVLNHVRKSAISDHLKSKTHTKRKAEFEEQNVRKKQRPLTASLQCNSTAQTEKVSVIQDFVKMCLEANIPLEKADHPAVRAFLSRHVKNGGSIPKSDQLRRTYLPDGYENENQLLNSQDC	soluble
MGHHHHHHSHMEWKVKIRSDGTRYITKRPVRDRILKERALKIKEERSGMTTDDDTMSEMKMGRYWSKEERKQHLVRAKEQRRRREFMMRSRLECLKESPQSGSEGKKEINIIELSHKKMMKKRNKKILDNWMTIQELMTHGAKSPDGTRVHNAFLSVTTV	not soluble
MGHHHHHHSHMFFKQFYDKHLSQASYLIGCQKTGEAMIIDPIRDLSSYIRVADEEGLTITHAAETHIHADFASGIRDVAIKLNASIYVSGESDDTLGYKNMPNQTHFVQHNDDIYVGNIKLKVLHTPGHTPESISFLLTDEGAGAQVPMGLFSGDFIFVGDIGRPDLLEKAVKVEGSSEIGAKQMFKSIESIKDLPNYIQIWPGHGAGSPCGKSLGAIPTSTLGYEKQTNWAFSENNEATFIDKLISDQPAPPHHFAQMKKINQFGMNLYQPYTVYPATNTNRLTFDLRSKEAYHGGHIEGTINIPYDKNFINQIGWYLNYDQEINLIGEYHLVSKATHTLQLIGYDDVAGYQLPQSKIQTRSIHSEDITGNESHILDVRNDNEWNNGHLSQAVHVPHGKLLETDLPFNRNDVIYVHCQSGIRSSIAIGILEHKGYHNIINVNEGYKDIHLS	not soluble
MGHHHHHHSHMFPCQHCERKFTTKQGLERHMHIHISTVNHAFKCKYCGKAFGTQINRRRHERRHEAGLKRKPSQ	soluble
MGHHHHHHSHMGTNDEDELSLGLPTELKRKKEQLDGGHRPSKETQSAAGLTLPLNSDQTFHLMSNLAGDVITAAVTAAIKDQLEGVQQALSQAAPIPEEDTDTEEGDDFELLDQSELDQIESELGLTQDQEAEAQQNKKSSGFLSNLLGGH	soluble
MGHHHHHHSHMHDSANCELPLLTPCSKAVMSQALKATFSGFKKEQRRLGIPKNPWLWSEQQVCQWLLWATNEFSLVNVNLQRFGMNGQMLCNLGKERFLELAPDFVGDILWEHLEQMIKENQEKTE	not soluble
MGHHHHHHSHMKYYRRALYDKFVHFYLVISDDGSSEAQLRGKMGGLVRKARKKISPDWPKEEQIHQLLQLFYGDWGFHCDPEDYFYARNLYLPYVFEHRQGMPVTLGAMVFYLAEALDLPIYPVNFPTQLILRAEVRDEVAFIDPWDGTYISQEKLQQLYEGAFGFGAKIQPEELDRADLSLLYSRFEQLAKNALIREEHNDMAYHYIKNLMITDAENPYHIRDRGLVLAQMGAYPSALKDLEFFVEHCPKDPTAAFIRTQLLELKGEINKDTFPLH	soluble
MGHHHHHHSHMLFSRIFMAGAPKFIKQLLLDLRNEIYCTILIVGDFNAPLTALDRSSRQKVHKETMGLHCILEQMDLTYIYRTFHPTTAEYTLFSSAHGTFFKIDHIIGHENKSQ	not soluble
MGHHHHHHSHMNGFSTEEDSREGPPAAPAAAAPGYGQSCCLIEDGERCVRPAGNASFSKRVQKSISQKKLKLDIDKSVRHLYICDFHKNFIQSVRNKRKRKTSDDGGDSPEHDTDIPEVDLFQLQVNTLRRYKRHYKLQTRPGFNKAQLAETVSRHFRNIPVNEKETLAYFIYMVKSNKSRLDQKSEGGKQLE	soluble
MGHHHHHHSHMPKVKRSRKAPPDGWELIEPTLDELDQKMREAETEPHEGKRKVESLWPIFRIHHQKTRYIFDLFYKRKAISRELYEYCIKEGYADKNLIAKWKKQGYENLCCLRCIQTRDTNFGTNCICRVPKSKLEVGRIIECTHCGCRGCSG	soluble
MGHHHHHHSHMQNADDFIKFLELEQHVEGGFYRSSYRSETAFDPSRQLWSSIYFLLRTGEVSHFHRLTADEMWYFHAGQSLTIYMISPEGELTTAQLGLDLAAGERPQFLVPKGCIFGSAMNQDGFSLVGCMVSPGFTFDDFELFSQEALLAMYPQHKAVVQKLSRPEVN	soluble
MGHHHHHHSHMREPWLFGEEHTRLIREAIRERYGLLPYWYSLFYHAHVASQPVMRPLWVEFPDELKTFDMEDEYMLGSALLVHPVTEPKATTVDVFLPGSNEVWYDYKTFAHWEGGCTVKIPVALDTIPVFQRGGSVIPIKTTV	soluble
MGHHHHHHSHMRVFIIHLSPKTCQNFSLKETHITPLLESLKLQGISYEIFDAIYSKISPTQLHPLILEHLHPSFMVEDLWAFCKNKKHPPCALKNFFYAIKHCGKRMGFGELGCYASHYSLWQKCIELNEAICILEDDIIIKDRFKESLEFCRHHINELGYIRLMHLEENVAKQKTPVKGVSQILNFKDGIGTQGYVLAPKAAQKLLKYSAKEWVMPIDCVMDRHYWHGVKNYVLEEFAIACDGMNAQNSNTEKQRPKKLPLSIRIGRSLHKSTIKFLDKVFRYSPKLIRIGKH	soluble
MGHHHHHHSHMSDWEDDDFEPEVSTFKRAEPAPEPVKIVDAPPPPQKAAPAAPKTLKAAPTFAMESLGRELTSAEKEAIQKKNDLALARDLFGDDDSAEATDEAKTYANIMSKADFEYWGERVGGFLASRSKASCYGDMIGKLLTSVTDEMTPAEILKMVTFLQQISAAKKTAEKTKAKATTAAKPAAAANKKNAKATLKVTKGNDSMYDDYGDDQDDYDDY	soluble
MGHHHHHHSHMSEETATSDNDNSYARVRAVVMTRDDSSGGWLPLGGSGLSSVTVFKVPHQEENGCADFFIRGERLRDKMVVLECMLKKDLIYNKVTPTFHHWKIDDKKFGLTFQSPADARAFDRGIRRAIEDISQGCPESK	soluble
MGHHHHHHSHMSGTEEAILGGRDSHPAAGGGSVLCFGQCQYTAEEYQAIQKALRQRLGPEYISSRMAGGGQKVCYIEGHRVINLANEMFGYNGWAHSITQQNVDFVDLNNGKFYVGVCAFVRVQLKDGSYHEDVGYGVSEGLKSKALSLEKARKEAVTDGLKRALRLPLLGVSGRILYSLFSVHSVMCAGGLPTPTASAQTAPSSPCSSAVLRYAQEFWECTWKLYSGQRLPEITK	not soluble
MGHHHHHHSHMTATVENLTFQKDTLGNAVDKNRRHGSTEPLVLAWSSQFRRLTWGCALDALHRSPCVAASQHGVTHLIRSSRTPHSTRCRKEDAQPGHHGNGAASVTAQARGQR	not soluble
